The results in this text go back to the supplement of paper PMC6757056.

B1: library; a variant is named by its letters at N, in order (parent)
chain: GCUGUCACCGAGAAACUGUGAAGUAUAUCUUAAACCUGGGCACUUAAAAGAUAUAUGGAGUUAGUAGUGCAACCUGCUCGGUCUGAUGAGUCCNNNNNNGGACGAAACAGC

Series [1] covers variants of B1. The series can be described thus: FACS-Seq fitted mean relative fluorescence mCherry/BFP without ligand (log10 relative fluorescence); HEK293T; ligand: cyclic di-GMP (c-di-GMP-II aptamer); higher = higher reporter protein expression. Particulars: ligand present: no. The method, boiled down: (§1)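 Sorting into 6 bins by mCherry/BFP followed 48 h of incubation with or without ligand. The cells were enriched HEK293T libraries lentivirally bearing an mCherry reporter with the ribozyme switch and an EF1α-BFP marker, and bin genomic DNA was PCR-amplified, barcoded and sequenced on MiSeq. Fluorescence is the fitted normal mean of the bin counts. Means were fitted on log10(mCherry/BFP), scaled to five spiked-in control ribozymes.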

Variants of B1 are the subject of series [2]. The series can be described thus: normalized RNA/DNA level without ligand (relative to sTRSVctl = 100) (log10 (% of sTRSVctl)); HEK293T; ligand: cyclic di-GMP (c-di-GMP-II aptamer); higher = less ribozyme self-cleavage, higher mRNA level. The following applies: reporter: mCherry (pCS4076), ligand present: no. Put shortly: (§2)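 Ribozyme switch library plasmids with mCherry reporters (eGFP in certain ligand experiments) went into HEK293T cells at 4 µg per 6-well well. Where ligand was used, it was applied 1 h before transfection, and total RNA was extracted with EDTA 72 h later for reverse transcription, amplification, barcoding and sequencing. RNA level is the RNA-to-DNA read ratio normalized to a spiked-in non-cleaving sequence or to the leading sequences, then scaled and log-transformed. Scaling was ×100 with log10, the leading set comprised 25 sequences, and the cutoff was ≥100 DNA reads.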

In series [3] the parent is B1. Kind of series: FACS-Seq fitted mean relative fluorescence mCherry/BFP with ligand (log10 relative fluorescence); HEK293T; ligand: cyclic di-GMP (c-di-GMP-II aptamer); ligand concentration (+) FACS-Seq: 1 mM; higher = higher reporter protein expression. The following applies: ligand present: yes. Put shortly: as §1
Variants of B1 are the subject of series [4]. The series can be described thus: normalized RNA/DNA level with ligand (relative to sTRSVctl = 100) (log10 (% of sTRSVctl)); HEK293T; ligand: cyclic di-GMP (c-di-GMP-II aptamer); ligand concentration (+) RNA-Seq: 1 mM; higher = less ribozyme self-cleavage, higher mRNA level. Particulars: reporter: mCherry (pCS4076), ligand present: yes. Put shortly:
as §2

± gives the standard deviation of the averaged measurements.

For the variant CCCUAG, the “FACS-Seq fitted mean (log10)” value in series [1] is -0.7711 ± 0.0036; in series [3] it was -0.624 ± 0.025. Besides, the “normalized RNA/DNA level without ligand (log10)” value in series [2] was determined as 1.65 ± 0.031. Besides, the “normalized RNA/DNA level with ligand (log10)” value in series [4] worked out at 1.84 ± 0.13.
Turning to GCGUUU, the “FACS-Seq fitted mean (log10)” value in series [1] is -0.452 ± 0.069; in series [3], -0.302 ± 0.06. The “normalized RNA/DNA level without ligand (log10)” value in series [2] came to 1.6 ± 0.026. Besides, the “normalized RNA/DNA level with ligand (log10)” value in series [4] came to 1.77 ± 0.14.
For the variant GCGCAU, the “FACS-Seq fitted mean (log10)” value is -0.0572 ± 0.14 in series [1] and 0.0686 ± 0.025 in series [3]. In series [2], the “normalized RNA/DNA level without ligand (log10)” value worked out at 1.66 ± 0.058. Also, the “normalized RNA/DNA level with ligand (log10)” value in series [4] was 1.8 ± 0.11.
Take ACGAGA: the entries for the “FACS-Seq fitted mean (log10)” value in series [1] and in series [3] were -0.604 ± 0.02 and -0.453 ± 0.01, respectively. Besides, in series [2], the “normalized RNA/DNA level without ligand (log10)” value was 1.29 ± 0.12. Moreover, the “normalized RNA/DNA level with ligand (log10)” value in series [4] is 1.45 ± 0.067.
As to ACGAGU, the figures for the “FACS-Seq fitted mean (log10)” value in series [1] and in series [3] were -0.508 ± 0.033 and -0.229 ± 0.13, respectively. Further, the “normalized RNA/DNA level without ligand (log10)” value in series [2] was determined as 1.43 ± 0.14. For the same variant, the “normalized RNA/DNA level with ligand (log10)” value in series [4] was determined as 1.7 ± 0.11.
For CCUCCC, the results for the “FACS-Seq fitted mean (log10)” value in series [1] and in series [3] were -0.363 ± 0.069 and -0.153 ± 0.079, respectively. Moreover, the “normalized RNA/DNA level without ligand (log10)” value in series [2] worked out at 1.81 ± 0.025. Moreover, the “normalized RNA/DNA level with ligand (log10)” value in series [4] came to 1.89 ± 0.12.
In the case of CCUCCU, the “FACS-Seq fitted mean (log10)” value in series [1] was -0.211 ± 0.0029; in series [3], 0.278 ± 0.026. For the same variant, the “normalized RNA/DNA level without ligand (log10)” value in series [2] was determined as 1.678 ± 0.011. In addition, the “normalized RNA/DNA level with ligand (log10)” value in series [4] worked out at 1.77 ± 0.098.
The corresponding values for CCUCCG are 0.138 ± 0.023, 0.32 ± 0.035, 1.769 ± 0.013 and 1.87 ± 0.073.
The corresponding values for GCGUGA are -0.266 ± 0.05, -0.000275 ± 0.097, 1.47 ± 0.068 and 1.65 ± 0.088.
In the case of GCGUGU, the results for the “FACS-Seq fitted mean (log10)” value in series [1] and in series [3] were -0.15 ± 0.054 and 0.114 ± 0.056, respectively. Further, the “normalized RNA/DNA level without ligand (log10)” value in series [2] came to 1.5 ± 0.085. In series [4], the “normalized RNA/DNA level with ligand (log10)” value is 1.75 ± 0.083.
The corresponding values for ACGCUC are -0.914 ± 0.014, -0.852 ± 0.057, 1.67 ± 0.02 and 1.82 ± 0.16.
The corresponding values for CCGAGA are -0.211 ± 0.078, 0.0834 ± 0.071, 1.46 ± 0.11 and 1.66 ± 0.086.
As to CCGAGC, the “FACS-Seq fitted mean (log10)” value in series [1] is -0.204 ± 0.022; in series [3] it was 0.0994 ± 0.021. The “normalized RNA/DNA level without ligand (log10)” value in series [2] was found to be 1.78 ± 0.059. The “normalized RNA/DNA level with ligand (log10)” value in series [4] is 1.88 ± 0.14.
UCUGUA: the results for the “FACS-Seq fitted mean (log10)” value in series [1] and in series [3] were -0.293 ± 0.01 and 0.0285 ± 0.0098, respectively. For the same variant, in series [2], the “normalized RNA/DNA level without ligand (log10)” value worked out at 1.57 ± 0.089. Besides, the “normalized RNA/DNA level with ligand (log10)” value in series [4] was found to be 1.77 ± 0.041.
As for ACGGUA, the “FACS-Seq fitted mean (log10)” value in series [1] is -0.397 ± 0.031; in series [3], -0.0373 ± 0.057. For the same variant, the “normalized RNA/DNA level without ligand (log10)” value in series [2] amounted to 1.37 ± 0.069. In addition, the “normalized RNA/DNA level with ligand (log10)” value in series [4] is 1.57 ± 0.14.
Turning to ACGGUU, the “FACS-Seq fitted mean (log10)” value in series [1] was -0.529 ± 0.031; in series [3], -0.237 ± 0.11. In series [2], the “normalized RNA/DNA level without ligand (log10)” value is 1.22 ± 0.074. Moreover, the “normalized RNA/DNA level with ligand (log10)” value in series [4] stood at 1.4 ± 0.1.
With UCGGCA, the results for the “FACS-Seq fitted mean (log10)” value in series [1] and in series [3] were -0.241 ± 0.26 and -0.0817 ± 0.0018, respectively. Further, in series [2], the “normalized RNA/DNA level without ligand (log10)” value is 1.65 ± 0.02. For the same variant, the “normalized RNA/DNA level with ligand (log10)” value in series [4] was determined as 1.81 ± 0.12.
The corresponding values for UCGGCU are -0.103 ± 0.0013, 0.114 ± 0.004, 1.77 ± 0.036 and 1.88 ± 0.089.
On the same counts, the results for ACUAUA are -0.358 ± 0.029, 0.067 ± 0.087, 1.53 ± 0.057 and 1.72 ± 0.12.
CCGGGG: the figures for the “FACS-Seq fitted mean (log10)” value in series [1] and in series [3] were -0.589 ± 0.03 and -0.295 ± 0.011, respectively. In series [2], the “normalized RNA/DNA level without ligand (log10)” value stood at 1.43 ± 0.022. Moreover, in series [4], the “normalized RNA/DNA level with ligand (log10)” value stood at 1.62 ± 0.11.
On the same counts, the results for UCUGAA are -0.341 ± 0.042, -0.0714 ± 0.032, 1.51 ± 0.079 and 1.73 ± 0.099.
On the same counts, the results for UCUGAU are -0.331 ± 0.024, -0.0535 ± 0.0022, 1.6 ± 0.061 and 1.83 ± 0.14.
The corresponding values for GCUCAU are -0.503 ± 0.042, -0.178 ± 0.097, 1.66 ± 0.0087 and 1.78 ± 0.1.
As to CCCGGU, the “FACS-Seq fitted mean (log10)” value is -0.55 ± 0.093 in series [1] and -0.114 ± 0.093 in series [3]. The “normalized RNA/DNA level without ligand (log10)” value in series [2] worked out at 1.724 ± 0.003. For the same variant, the “normalized RNA/DNA level with ligand (log10)” value in series [4] was 1.87 ± 0.11.
On the same counts, the results for GCUCUA are -0.242 ± 0.011, 0.0781 ± 0.02, 1.64 ± 0.039 and 1.8 ± 0.025.
GCUCUU: the results for the “FACS-Seq fitted mean (log10)” value in series [1] and in series [3] were -0.277 ± 0.12 and -0.215 ± 0.015, respectively. Further, in series [2], the “normalized RNA/DNA level without ligand (log10)” value is 1.66 ± 0.07. Also, the “normalized RNA/DNA level with ligand (log10)” value in series [4] stood at 1.82 ± 0.16.
As to CCCUGC, the results for the “FACS-Seq fitted mean (log10)” value in series [1] and in series [3] were -0.0175 ± 0.34 and 0.142 ± 0.079, respectively. For the same variant, the “normalized RNA/DNA level without ligand (log10)” value in series [2] worked out at 1.792 ± 0.0034. In addition, the “normalized RNA/DNA level with ligand (log10)” value in series [4] stood at 1.9 ± 0.16.
On the same counts, the results for GCUAUG are -0.741 ± 0.034, -0.505 ± 0.019, 1.58 ± 0.075 and 1.72 ± 0.078.
On the same counts, the results for GCUAUA are -0.262 ± 0.11, -0.134 ± 0.099, 1.55 ± 0.058 and 1.73 ± 0.11.
The corresponding values for UCUAAA are -0.692 ± 0.041, -0.441 ± 0.055, 1.495 ± 0.0055 and 1.74 ± 0.15.
With UCUAAU, the “FACS-Seq fitted mean (log10)” value in series [1] was -0.491 ± 0.013; in series [3], -0.327 ± 0.062. The “normalized RNA/DNA level without ligand (log10)” value in series [2] came out at 1.6 ± 0.017. The “normalized RNA/DNA level with ligand (log10)” value in series [4] turned out to be 1.78 ± 0.1.
On the same counts, the results for GCGAUA are -0.474 ± 0.0058, -0.154 ± 0.057, 1.44 ± 0.11 and 1.61 ± 0.12.
Consider GCGAUC, for which the “FACS-Seq fitted mean (log10)” value in series [1] is -0.51 ± 0.012; in series [3] it was -0.206 ± 0.014. For the same variant, the “normalized RNA/DNA level without ligand (log10)” value in series [2] came out at 1.16 ± 0.039. Further, the “normalized RNA/DNA level with ligand (log10)” value in series [4] came out at 1.34 ± 0.15.
GCUGAA: the “FACS-Seq fitted mean (log10)” value in series [1] was -0.497 ± 0.029; in series [3] it was -0.115 ± 0.0012. The “normalized RNA/DNA level without ligand (log10)” value in series [2] worked out at 1.45 ± 0.035. The “normalized RNA/DNA level with ligand (log10)” value in series [4] stood at 1.65 ± 0.097.
For the variant GCGCGA, the “FACS-Seq fitted mean (log10)” value in series [1] is -0.455 ± 0.074; in series [3] it was -0.199 ± 0.081. Moreover, in series [2], the “normalized RNA/DNA level without ligand (log10)” value worked out at 1.51 ± 0.12. Also, the “normalized RNA/DNA level with ligand (log10)” value in series [4] was 1.65 ± 0.037.
